Source: the PETadex activity labels

B1: unnamed (protein)
chain: MPKSDRSTPQPARSQHGGFAKLSLGLTALLMSVLVHAQSNPFERGPEPTVASLEAAAGPYAVQTTQVGKGNSNDYARGTVYYPVANDGQFALIAIVPGYTERQAGVSWWGSRLASHGFVVVTVDTNAPGEFPPSRARALKDALATVVKLSQTSSSPFFGKIDASRQGIMGHSMGGGATLELARSNSKLKAAIPFAPWNSNSKVYTRVKVPTLIISCQRDAVAPVNSHANKFYDSFSATLDKALLEVTGGDHYCASTSASAANKAVVGKYGVAWMKRFLDNDTRYSQFLCGAPHQADLAGPIISSYKDSCPY
B2: unnamed (protein)
chain: MERGNHRAKWVIGLGLLALAAAAQSQTNPFQKGPDPTSTLLNATSGPFSVATSSVSSLAAQGFGGGTIYYPSTTGTYAVLAISPGFTATQSSIAWLGRRIATHGFVVITIDTNSTLDQPPSRATQLIAALRHVTDLSNATVRSRVDASRRGVAGHSMGGGGSLIAARDNPSLKAAVPLTAWSTTKVFSTVQVPTLVVGAENDTIASVSSHSIPFYTSLSSSLDKAYAELNNASHLAPNTTNTPIGRYSVAWVKRFMDNDTRYTPFLCGAPHQSYATSAVFSDYRSTCPY
B3: unnamed (protein)
chain: MLGVMGWSMGGGGTLITVDDHPELKAAITLCAWNPGQTYRQNQVPTLLFAGTADVLAGGQSQGFYTSIPETTPKMLFEVQGADHFFANTPEGASGQCGKYGTAWLKVFLVGDECYRPFLLEPPSGTSDFRTNLE
B4: unnamed (protein)
chain: MKLTFVPLAITVVATLTCTSVVAKINLVESQVIQISELKKPAESLIDKSAQTAALPIPPSIATCIDDSAISADNLSQAKDNGPFAISSKDIPRQSAIGFGGGTIHYPINASGCGLLAAIAVVPGFVSYESSIKWLGPRLAAWGFVVITINTDSIYDNPDSRARQLSAALDTIISDDNVGSIVDPNRLGAIGWSMGGGGALKLATVRDEVRAIVPLAPYHDKDYGEVSTPTLVIACQFDRIARNKKYGSMFYDKAIGPKMKVELNNASHFCPSYRFNEILLSKPIIAWMQRYINEDERFDKLLCANETYSENPRFSSYDYANCS
B5: unnamed (protein)
chain: MKTTKGTKIALIAFTLSFSLSAFSGGGGGGNNNGGLPAPNTCTSNCGFETGPNPNLNFVRASRGPLPTRTTVVSRSVDGFGGGTIYYPSNASEEMAAIAVSPGFTATQSSIDWWGPILASHGFVVITIDTNSRFDQPISRGRQLDSALSYLISENSRRNSPISGLVDETRLATMGHSMGGGGALRSASRNRLSAAMPMAPFNVGNNDFNQIRVPTMIMACENDVVAPVGIHARPFYNRIPGSTDKVLLEFNNGPHNCANGESSGNRPLLSTYGVSWMKRFLDKDRRYNQFLCGPNHVANNGISDFRSTCTF
B6: unnamed (protein)
chain: MRPPCCSAGATWLSRSRSRAAVVLTTLVATVSALLIVSAAPALAAPVPAPTTASLEATNGPLATASYTVPNPSGYGSGTITYPTGSGSYPGVVLMPGYQGTQQNLRWLAPRLASWGFVVVNVGTRTLTDDPESRGDQISAAGTQLLAFSNAVGNPITGKVNGTLGAAGHSMGGGGTMVALRDDARFRAGVPLAPYYQNGNFSSVAKPTFSLTCRSDVAAPGNTYALPWYNSMTRAEKLYVEVPGDHLCPMTGYGNKAKQGKWIVSFFSRWLRGDTRFSPFLCGAEREADRNNAALVTRWMDTCPY
B7: unnamed (protein)
chain: MKKNIFKKACLSALVIAFSLSAHSGGGGGDDGGSDQLPLPDSCNSNCGYEVGPNPTLSALEATQGPLSVSASTVSSSVDGFGGGTIYYPNNASQELATIAVAPGFTNTQSAIQWWGPLLASHGYVVITIDTNGRFDNPGSRSLQLDAALSYLISEGNRSSSDISGLVDENRLATMGFSMGGGGTLISASRNRLSAAVPMAPWNTGGNDFDAIGVPTLIFACEDDSTARINSHASPFYNSIPSSTDKAYMEINNGPHNCANGNNGNGNDALLSTYGVSWMKRFLDKDSRYDQFLCGPNHVANSKINEYRDTCNY
B8: unnamed (protein)
chain: MRPCSRSTNTTPPLRTRSRPMTALIALATTIGLALTLLTATAAPAAAADLLSQGKPVTSSSTENTSTPASAAVDGNTGTRWSSTFSDPQWLTVDLGATATISQVVLRWEAAYARSFRIQTSDNGTSWTTIHSTTTSTGGAQTLDVNGSGRYIRLYGTQRGTAYGYSLWEFQVYGSGEGTPPGSGIPDPTTVSLEATNGPLTTATYTVPSPSGYGSGTVTYPTASGSYPGIVLMPGYQGTQQNLQWLAPRLASWGFVVINVGTNTLTDDPESRGRQITAAGTQLLALGDAPGNPLSGKLNGTLGATGHSMGGGGVMAALRDDSRFRAGVPTAPYHPNGNFSGVTEPTFFLTCQSDAVAHGDRYAVPWYTSMSQAEKLYIEVPGDHLCPMTGYGNKAKQGKWMVSFFSLWLRADTRFSPFLCGPARDADKNDTSLVTRWMDTCQF

Substrate: BHET
Settings: 120 h

| Protein | plate clearing |
| --- | --- |
| B1 | clears the plate (z > 3 vs empty vector) |
| B2 | not clears the plate |
| B3 | not clears the plate |
| B4 | not clears the plate |
| B5 | not clears the plate |
| B6 | not clears the plate |
| B7 | not clears the plate |
| B8 | not clears the plate |
